Reference: US20250154262A1

Biological target: hFcγRIIIa-V158 (human) (UniProt P08637)
Experiment: SPR (Carterra LSA), protein AG capture

hFcγRIIIa-V158 (human), sequence (P08637 17-208 F176V limits assumed): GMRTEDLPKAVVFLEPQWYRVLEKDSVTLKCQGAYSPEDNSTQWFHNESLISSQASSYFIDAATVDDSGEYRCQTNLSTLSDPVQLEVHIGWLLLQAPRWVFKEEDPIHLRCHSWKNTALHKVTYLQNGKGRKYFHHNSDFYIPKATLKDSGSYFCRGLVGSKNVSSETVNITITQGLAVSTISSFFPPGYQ

Substance | Fold-change relative to WT [fold] | Kd [nM] | koff [s⁻¹] | kon [M⁻¹ s⁻¹]
H268D_L251W_L314M_S298A (antibody) | 4.2 | 69.1 | 0.0269 | 389000
H268D_L251W_L314M_Y373W (antibody) | 1.9 | 151 | 0.065 | 431000
H268D_L251W_L314N (antibody) | 8.4 | 34.5 | 0.0223 | 647000
H268D_L251W_L314S (antibody) | 9.4 | 31.1 | 0.119 | 3.83e+06
H268D_L251W_L314T_S298A (antibody) |  | 51.7 |  | 
H268D_L251W_L314V (antibody) | 3.1 | 92.8 | 0.0231 | 249000
H268D_L251W_S267D_Y373W (antibody) | 2.4 | 123 | 0.049 | 397000
H268D_L251W_S298A (antibody) | 6.3 | 46 | 0.0213 | 463000
H268D_L251W_Y373W (antibody) |  | 86.8 |  | 
H268D_L251W_Y373W_S298A (antibody) | 3.3 | 89.1 | 0.034 | 381000
H268D_L314K_L251Q (antibody) |  | 133 |  | 
H268D_L314W_Y373W_A330M (antibody) | 7.6 | 38.4 | 0.0198 | 516000
H268D_S267D_L251I_A339T (antibody) | 4.8 | 60.7 | 0.0212 | 348000
H268E_L251Q_A339T_L314A (antibody) |  | 118 |  | 
H268E_L251W_L314I_A330F (antibody) | 2.6 | 111 | 0.0308 | 276000
H268E_L314V_L251A_A330M (antibody) | 5.1 | 57.6 | 0.021 | 365000
L251F (antibody) |  | 104 |  | 
L251F_A339T_L314S_Y373W (antibody) |  | 204 |  | 
L251F_S267A_L314S (antibody) | 1.7 | 174 | 0.038 | 218000

Substance | Fold-change relative to WT [fold] | Kd [nM] | koff [s⁻¹] | kon [M⁻¹ s⁻¹]
L251I_L314G_A339T_A330F (antibody) | 0.2 | 1610 | 0.062 | 38500
L314N_S267A_A330M_D376T (antibody) |  | 286 |  | 
L314V_A330F_Y373W_H268A (antibody) | 1.5 | 190 | 0.035 | 184000
L314W_A339T_A330M_D376T (antibody) | 1.6 | 179 | 0.045 | 252000
S267D_A330Y_A339T (antibody) | 2.7 | 109 | 0.035 | 320000
S267D_A330Y_D376V (antibody) | 2 | 145 | 0.0406 | 279000
S267D_A330Y_L251W (antibody) | 2.6 | 111 | 0.0391 | 353000
S267D_A330Y_L251W_D376V (antibody) | 3.2 | 91.4 | 0.036 | 394000
S267D_A330Y_L314K (antibody) |  | 268 |  | 
S267D_A330Y_Y373W (antibody) | 2.3 | 124 | 0.0371 | 298000
S267D_L314T_A339T (antibody) |  | 208 |  | 
S267D_L314W_L251H_D376V (antibody) | 2.3 | 124 | 0.036 | 290000
S298A_A330Y_A339T (antibody) |  | 58.4 |  | 
S298A_A330Y_A339T_Y373W (antibody) | 3.1 | 93.3 | 0.0206 | 221000
S298A_A330Y_D376V (antibody) | 3.8 | 77.2 | 0.0285 | 369000
S298A_A330Y_L251W (antibody) | 3.2 | 90.4 | 0.038 | 421000
S298A_A330Y_L251W_D376V (antibody) | 2.3 | 127 | 0.0308 | 243000
S298A_A330Y_L314K (antibody) | 3.3 | 88.4 | 0.0207 | 235000
S298A_A330Y_Y373W (antibody) | 1.2 | 251 | 0.0344 | 137000
